# Measured values from publication PMC11232922.
# Biological target: human fibrinogen (human) (UniProt P02671)
# Assay: ELISA
row,Substance,EC50 [nM]
1,recombinant gain-of-function (GOF) A1(R1450E)A2A3 mutant of VWF (domain or fragment),63
2,recombinant wild-type A1A2A3 (WT) domains protein of VWF (domain or fragment),87
